Results: PMC12549891

Target: human olfactory CNGA2/A4/B1b heterotetrameric channel (human) (UniProt Q16280)
Sequence (Q16280 whole entry, chain 1 of 3): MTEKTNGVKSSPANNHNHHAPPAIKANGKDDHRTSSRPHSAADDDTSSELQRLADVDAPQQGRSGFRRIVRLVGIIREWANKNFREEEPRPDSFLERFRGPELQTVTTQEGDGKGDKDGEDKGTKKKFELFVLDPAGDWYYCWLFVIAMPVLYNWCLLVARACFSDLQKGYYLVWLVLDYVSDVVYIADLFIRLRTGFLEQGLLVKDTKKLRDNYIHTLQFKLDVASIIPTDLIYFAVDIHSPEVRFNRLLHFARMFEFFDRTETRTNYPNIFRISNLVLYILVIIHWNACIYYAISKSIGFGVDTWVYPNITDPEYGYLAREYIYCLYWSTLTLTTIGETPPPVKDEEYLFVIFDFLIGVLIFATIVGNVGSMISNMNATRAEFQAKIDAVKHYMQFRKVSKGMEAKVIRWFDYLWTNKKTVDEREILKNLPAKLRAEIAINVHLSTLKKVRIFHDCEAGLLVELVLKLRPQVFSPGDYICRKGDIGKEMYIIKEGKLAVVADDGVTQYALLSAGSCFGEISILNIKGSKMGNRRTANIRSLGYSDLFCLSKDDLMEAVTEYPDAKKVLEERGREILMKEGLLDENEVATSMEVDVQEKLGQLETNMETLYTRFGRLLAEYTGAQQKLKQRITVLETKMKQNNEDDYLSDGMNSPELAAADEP
Sequence (Q8IV77 whole entry, chain 2 of 3, further chain): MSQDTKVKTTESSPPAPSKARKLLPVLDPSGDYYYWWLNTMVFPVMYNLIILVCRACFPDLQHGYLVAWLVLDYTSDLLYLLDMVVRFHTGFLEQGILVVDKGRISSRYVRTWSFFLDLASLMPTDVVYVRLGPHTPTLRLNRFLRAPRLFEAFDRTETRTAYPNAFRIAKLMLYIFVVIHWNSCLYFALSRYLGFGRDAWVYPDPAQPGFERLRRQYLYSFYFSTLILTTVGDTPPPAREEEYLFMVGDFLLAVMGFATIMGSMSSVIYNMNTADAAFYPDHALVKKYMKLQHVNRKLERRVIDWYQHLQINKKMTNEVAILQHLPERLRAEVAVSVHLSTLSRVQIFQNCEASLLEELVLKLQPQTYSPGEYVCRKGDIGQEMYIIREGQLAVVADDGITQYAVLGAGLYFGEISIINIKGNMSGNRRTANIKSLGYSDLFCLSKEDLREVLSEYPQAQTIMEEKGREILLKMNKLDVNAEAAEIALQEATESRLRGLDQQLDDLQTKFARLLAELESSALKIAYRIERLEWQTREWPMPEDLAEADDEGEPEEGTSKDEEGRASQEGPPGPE
Sequence (Q14028 456-1251, chain 3 of 3, further chain): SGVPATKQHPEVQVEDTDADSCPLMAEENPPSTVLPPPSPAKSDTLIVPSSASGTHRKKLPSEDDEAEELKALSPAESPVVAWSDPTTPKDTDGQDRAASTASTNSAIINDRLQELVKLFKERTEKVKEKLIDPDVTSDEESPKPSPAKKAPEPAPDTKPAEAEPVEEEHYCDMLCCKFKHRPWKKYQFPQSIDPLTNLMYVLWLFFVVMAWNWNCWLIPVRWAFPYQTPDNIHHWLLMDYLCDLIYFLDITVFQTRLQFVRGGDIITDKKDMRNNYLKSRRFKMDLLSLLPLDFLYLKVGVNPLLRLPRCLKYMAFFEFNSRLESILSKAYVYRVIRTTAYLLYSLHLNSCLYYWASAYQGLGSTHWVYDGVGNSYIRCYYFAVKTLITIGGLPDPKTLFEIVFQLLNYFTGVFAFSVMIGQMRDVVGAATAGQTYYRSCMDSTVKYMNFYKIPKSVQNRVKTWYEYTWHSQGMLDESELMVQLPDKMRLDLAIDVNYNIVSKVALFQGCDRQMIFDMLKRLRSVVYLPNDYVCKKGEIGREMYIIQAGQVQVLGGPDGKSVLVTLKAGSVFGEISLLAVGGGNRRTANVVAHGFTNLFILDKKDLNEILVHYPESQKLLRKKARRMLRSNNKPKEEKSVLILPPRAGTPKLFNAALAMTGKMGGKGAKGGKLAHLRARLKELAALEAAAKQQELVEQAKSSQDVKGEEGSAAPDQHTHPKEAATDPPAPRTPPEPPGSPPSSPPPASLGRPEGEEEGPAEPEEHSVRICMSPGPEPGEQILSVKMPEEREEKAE

human calmodulin (from UniProt P0DP23 1-149) (natural protein)
time of washout with EGTA-containing bath solution needed to remove the bound (endogenous) CaM from the channel in excised patches: 10 min
